From US20030064071A1 come the findings set out here.

Assay [1] concerns the target DC-SIGN (human) (UniProt Q9NNX6). Put plainly: flow cytometry, immature DC day 7 (endogenous DC-SIGN).
Assay [2] shares this target. The experiment in a line: flow cytometry, mature DC day 9, TNFα-matured (endogenous DC-SIGN). In general terms: A flow cytometer gives signals particle by particle.
For assay [3] the target is unchanged. The experiment in a line: flow cytometry, mature DC day 9, LPS-matured (endogenous DC-SIGN).
The target is the same in assay [4]. Put plainly: flow cytometry, mature DC day 9, MCM/PGE2-matured (endogenous DC-SIGN).
For assay [5] the target is unchanged. The experiment in a line: cell-based or functional assay.

Sequence of DC-SIGN (human) (Q9NNX6 whole entry): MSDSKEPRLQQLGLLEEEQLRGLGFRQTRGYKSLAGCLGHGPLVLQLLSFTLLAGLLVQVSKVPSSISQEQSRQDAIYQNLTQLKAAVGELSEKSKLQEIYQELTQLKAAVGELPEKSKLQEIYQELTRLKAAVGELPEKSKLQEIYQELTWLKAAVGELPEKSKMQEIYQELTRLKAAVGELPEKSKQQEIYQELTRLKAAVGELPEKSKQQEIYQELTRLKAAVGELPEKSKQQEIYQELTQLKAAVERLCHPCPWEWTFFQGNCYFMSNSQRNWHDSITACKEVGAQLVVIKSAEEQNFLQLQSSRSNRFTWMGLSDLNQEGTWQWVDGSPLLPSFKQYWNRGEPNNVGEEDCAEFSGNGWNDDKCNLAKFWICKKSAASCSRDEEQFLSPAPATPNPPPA

Take AZN-D1 (antibody): the mean fluorescence of staining (mean fluorescence) in the assay with DC-SIGN (human) [1] was found to be 980; with DC-SIGN (human) [2] it was 420; with DC-SIGN (human) [3], 489; in the assay with DC-SIGN (human) [4] it was 445.

Consider “HxB2 envelope (from UniProt P04578 33-856)”, for which, in the assay with DC-SIGN (human) [5], the luciferase activity (unactivated T cells, THP-SIGN cells relative to THP cells) was found to be 20 fold.
